Source: patent publication US20250057930A1, “ANAPLASTIC LYMPHOMA KINASE (ALK) CANCER VACCINES AND METHODS OF USE THEREOF” (The Children's Medical Center Corporation, priority 2022, published 2025)

System: H2-Dd expression
Assay: H2-Dd surface expression on MHC-I^low lung tumor escaper cell lines (flow cytometry)
Format: cell-based, mouse
Conditions: tumor cells stimulated in vitro with IFN-γ
Description: To uncover the mechanisms that would explain this resistance to treatment, ex vivo escaped tumors were isolated from each treatment group. […] To understand whether the observed H2-Dd downregulation was sufficient to impair tumor rejection, tumor cells with high H2-Dd isolated from untreated mice or tumor cells with low H2-Dd isolated from ALK vaccinated mice and treated with ICI were injected. Treatment with ICI induced rejection of tumors with high H2-Dd expression (FIGS. 6D-6E), consistent with previous experiments (FIG. 3E), but not of escaped tumors with low H2-Dd expression (FIGS. 6F-6G). Finally, it was asked whether H2-Dd expression could be restored by Stimulator of IFN genes (STING) signaling that can increase MHC-I expression in other models of lung cancer.
Allophycocyanin (APC)-conjugates H-2D^d-[…] (SEQ ID NO: 22) Dextramer reagents were obtained from Immudex (Immudex, Denmark). […] After washing step, cells were ready to be acquired. When referred, also PD-1 (clone RMP1-30; BV421-PD-1, BD Pharmingen™, USA) expression was evaluated together with dextramer staining, being added together with FITC-CD8. H2-Dd MHC-I expression was measured on relapsed tumors after treatment. […] All cells were acquired in a BD Celesta flow cytometer (BD Bioscience, USA) and analyzed by using the FlowJo software (FlowJo LCC, USA). […]

B1: IFN-γ: Recombinant murine IFN-γ (R&D Systems) (protein, UniProt P01580 23-155, looked up)
Interferon gamma: HGTVIESLESLNNYFNSSGIDVEEKSLFLDIWRNWQKDGDMKILQSQIISFYLRLFEVLKDNQAISNNISVIESHLITTFFSNSKAKKDAFMSIAKFEVNNPQVQRQAFNELIRVVHQLLPESSLRKRKRSRC
In the case of B1, the H2-Dd expression is reported as “H2-Dd expression was restored”.
